# Results taken from US9096832B2, “Differentiation of human embryonic stem cells” (LifeScan, Inc., priority 2007, dated 2015).
# B1: BMP-4: BMP-4 (Catalog#314-BP-010, R&D Systems, MN) (protein, UniProt P12644 293-408, looked up)
# Bone morphogenetic protein 4: SPKHHSQRARKKNKNCRRHSLYVDFSDVGWNDWIVAPPGYQAFYCHGDCPFPLADHLNSTNHAIVQTLVNSVNSSIPKACCVPTELSAISMLYLDEYDKVVLKNYQEMVVEGCGCR
# B2: DKK1: Wnt Inhibitor DKK-1 (Dikkopf-1) (protein, UniProt O94907 32-266, looked up)
# Dickkopf-related protein 1: TLNSVLNSNAIKNLPPPLGGAAGHPGSAVSAAPGILYPGGNKYQTIDNYQPYPCAEDEECGTDEYCASPTRGGDAGVQICLACRKRRKRCMRHAMCCPGNYCKNGICVSSDQNHFRGEIEETITESFGNDHSTLDGYSRRTTLSSKMYHTKGQEGSVCLRSSDCASGLCCARHFWSKICKPVLKEGQVCTKHRRKGSHGLEIFQRCYCGEGLSCRIQKDHHQASNSSRLHTCQRH
# B3: Wnt1: WNT-1 (PeproTech, NJ, Catalogue#120-17) (protein, UniProt P04628 28-370, looked up)
# Proto-oncogene Wnt-1: ANSSGRWWGIVNVASSTNLLTDSKSLQLVLEPSLQLLSRKQRRLIRQNPGILHSVSGGLQSAVRECKWQFRNRRWNCPTAPGPHLFGKIVNRGCRETAFIFAITSAGVTHSVARSCSEGSIESCTCDYRRRGPGGPDWHWGGCSDNIDFGRLFGREFVDSGEKGRDLRFLMNLHNNEAGRTTVFSEMRQECKCHGMSGSCTVRTCWMRLPTLRAVGDVLRDRFDGASRVLYGNRGSNRASRAELLRLEPEDPAHKPPSPHDLVYFEKSPNFCTYSGRLGTAGTAGRACNSSSPALDGCELLCCGRGHRTRTQRVTERCNCTFHWCCHVSCRNCTHTRVLHECL
# Legend:
# H9P55 cells = test: Definitive endoderm on human fibronectin or […] (FACS, real-time PCR); assay type: cell-based; settings: fibronectin vs MATRIGEL coated plates
# Method: H9P55 cells were grown and differentiated on human fibronectin or regular growth factor […]™ (BD Biosciences). 1 ml of DMEM/F12 (Invitrogen/GIBCO) containing 1 ug/ml of human fibronectin (R&D systems, MN) was added to each well of 6 well tissue culture treated dish. Alternatively, regular growth factor […]™ was diluted 1:10 in DMEM/F12 and 1 ml of diluted […]™ was added to each well of 6 well tissue culture treated dish. Cells were passed with collagenase. […] Real-time PCR results (FIG. 39) confirm that formation of definitive endoderm was equivalent on fibronectin and […]™ coated plates.
# [1] = system: H9P53 embryonic stem cells; test: Definitive endoderm on […]: combination of Wnt-3a, GSK-3B inhibitor, BMP-4; assay type: cell-based, human; settings: 25 ng/ml BMP-4 added to the DE protocol
# From the text: Results are expressed as fold increase over untreated cells. […] Results are expressed as fold increase over untreated cells.
# H9 cells = test: Definitive endoderm after treatment with Wnt inhibitor DKK-1 (real-time PCR); assay type: cell-based, human; settings: 100 ng/ml DKK1 with 20 ng/ml Wnt3a and 100 ng/ml activin A
# Method: To determine if the addition of Wnt-3a was causing the increase in differentiation, an inhibitor of Wnt-3 signaling was added to the cultures. […] H9 cells were cultured on plates coated with Growth Factor Reduced […] at a 1:30 dilution. The plates were coated with […] for 1 hr at room temperature.
# At day 5, the cultures were analyzed by real time PCR for SOX-17, SOX-7, Alpha-fetal protein (AFP), CXCR4, Brychyury (Bry), gooscecoid (GSC), HNF-3 beta, GATA4, hTERT and Oct4. AFP and SOX-7 are regarded as visceral endoderm markers while GATA4, HNF-3beta and SOX-17 represent definite endoderm markers and GSC, Bry, and CXCR4 represent markers of primitive streak. hTERT and Oct-4 are markers for self renewal and pluripotency respectively.
# H1P55 ES cells = test: Definitive endoderm on […]: role of Wnt1 (real-time PCR); assay type: cell-based, human; settings: 20 ng/ml Wnt1 in the presence of 100 ng/ml AA
# Method: The following combinations of WNT1+AA were tested:
# a) 20 ng/ml of WNT1+100 ng/ml AA in 0.5% FBS+DM-F12 for days 1-2 followed by 2% FBS+DM-F12+100 ng/ml AA for day three, b) 20 ng/ml of WNT1+100 ng/ml AA in 0.5% FBS+DM-F12 for days 1-2 followed by 2% FBS+DM-F12+100 ng/ml AA for days 3-5, c) 10 ng/ml of WNT1+100 ng/ml AA in 0.5% FBS+DM-F12 for days 1-2 followed by 2% FBS+DMF12+100 ng/ml AA for day three, d) 10 ng/ml of WNT1+100 ng/ml AA in 0.5% FBS+DM-F12 for days 1-2 followed by 2% FBS+DM-F12+100 ng/ml AA for days 3-5, e) 20 ng/ml of WNT1+100 ng/ml AA in 0.5% FBS+DM-F12 for days 1-2 followed by 2% FBS+DM-F12+100 ng/ml AA+20 ng/ml of WNT1 for day three, f) 20 ng/ml of WNT1+100 ng/ml AA in 0.5% FBS+DM-F12 for days 1-2 followed by 2% FBS+DM-F12+100 ng/ml AA+20 ng/ml of WNT1 for days 3-5.
molecule,measurement,setting,value
fibronectin,formation of definitive endoderm (real-time PCR),H9P55 cells,equivalent
B1,mesoderm marker BRY,[1],induce formation of mesoderm marker BRY
B2,"expression level of differentiation markers (CXCR4, GATA4, HNF-3beta, SOX17, goosecoid)",H9 cells,dramatically decrease to levels similar to that of untreated cells
B3,"definitive endoderm markers (Bry, CXCR4, GSC, SOX17, HNF-3B, and GATA-4)",H1P55 ES cells,significant up regulation
